# Experimental data taken from paper PMC6141585.
# Target: actin filaments in growth cones of cultured hippocampal neurons (mouse (endogenous in cultured hippocampal neurons))
# Assay: FRET or BRET; acceptor photobleaching FRET in growth cones of fixed 2 DIV hippocampal neurons; donor GFP or GFP-tagged construct, acceptor TRITC-phalloidin on actin filaments
substance,measurement,value
MAP6-E-GFP (rat MAP6-E fused to GFP) (from UniProt Q63560 1-614) (natural protein),FRET efficiency,52%
